Molecular target: biotinylated 151AcPhe mutant GFP [GFP: P42212]
Assay: SAv-dependent gel-shift assay, 10% native PAGE

“streptavidin (from UniProt P22629 37-163)” was tested, and the percent of GFP band retarded was 80%.

Source: US20030228593A1
